Positions count from the first letter of the chain named. Names may count otherwise.

The target of assay [1] is T1, hIL-7R (Example 11) (human, UniProt P16871 21-239).
T1 construct: Called full length hIL-7R for the mRNA display and hIL-7R for the Biacore runs; also called full length hIL-7R; human IL-7R
T1 chain: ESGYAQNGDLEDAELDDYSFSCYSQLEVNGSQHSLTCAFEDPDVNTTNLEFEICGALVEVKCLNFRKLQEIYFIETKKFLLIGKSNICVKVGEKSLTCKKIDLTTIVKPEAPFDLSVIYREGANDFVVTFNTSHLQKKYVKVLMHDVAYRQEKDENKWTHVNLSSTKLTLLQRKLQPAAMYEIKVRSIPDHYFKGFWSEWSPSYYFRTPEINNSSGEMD
Briefly: NGS enrichment ratio of the mutation in the scFv library selected at 0.2 nM hIL-7R [cont'd]. An excerpt:
(§1) All six CDRs of the antibody were mutated, with each position in the CDR mutated to all possible amino acids at that position. […] FIGS. 17A and 17B provide a schematic of the overall process.

Assay [2] deals with T1, hIL-7R (Example 11). Kind of assay: SPR (Biacore), ratio KD of parent 18B1 to KD of variant [cont'd]. An excerpt: (§2) Affinity (KD) of each variant binding to hIL-7R was obtained using this approach, and compared against the enrichment ratio (ER) obtained through NGS heat map analysis for the same variant.
(In SPR one partner is held on a chip, and binding of the other changes the refractive index at the surface.)

Assay [3] concerns the target T1, hIL-7R (Example 11). Kind of assay: NGS enrichment ratio of the mutation in the scFv library selected at 0.2 nM hIL-7R.
Excerpt: as §1

Assay [4] addresses T1, hIL-7R (Example 11). Kind of assay: SPR (Biacore), ratio KD of parent 18B1 to KD of variant.
Excerpt: as §2

In assay [5] the target is T1, hIL-7R (Example 11). Briefly: SPR (Biacore), ratio KD of parent 18B1 to KD of variant; row repeated at the end of the table [cont'd].
Excerpt: as §2

B1: 18B1 LC D50A (antibody, human IgG1, kappa, V domains shown)
VH: EVQLVESGGGLVQPGRSLRLSCAASGFTFDDHAMHWVRQAPGKGLEWVSGISWNSRGIGYADSVKGRFTIFRDNAKNSLYLQMNSLRAEDTALYYCAKDEYSRGYYVLDVWGQGTTVTVSS
VL: AIQLTQSPSSLSASVGDRVTITCRASQGISSALAWYQQKPGKAPKLLIYAASSLESGVPSRFSGSGSGTDFTLTISSLQPEDFATYYCQQFNSYPLWITFGQGTRLEIKR
B1: the “0.2 nM NGS” value with hIL-7R (Example 11) [1] stood at 0.3. Besides, the “KD Relative to 18B1” value with hIL-7R (Example 11) [2] amounted to 0.77.

B2: 18B1 LC S30A (antibody, human IgG1, kappa, V domains shown)
VH: B1 VH
VL: B1 VL with S30A, A50D
Regarding B2, in the assay with hIL-7R (Example 11) [3], the “0.2 nM NGS” value amounted to 0.7. Besides, the “KD Relative to 18B1” value with hIL-7R (Example 11) [4] was 0.88.

B3: 18B1 LC S53A (antibody, human IgG1, kappa, V domains shown)
VH: B1 VH
VL: B1 VL with A50D, S53A
With B3, in the assay with hIL-7R (Example 11) [1], the “0.2 nM NGS” value worked out at 1.07. Further, the “KD Relative to 18B1” value with hIL-7R (Example 11) [2] turned out to be 0.79.

B4: 18B1 LC L33A (antibody, human IgG1, kappa, V domains shown)
VH: B1 VH
VL: B1 VL with L33A, A50D
Turning to B4, the “0.2 nM NGS” value with hIL-7R (Example 11) [3] stood at 1.05. In the assay with hIL-7R (Example 11) [4], the “KD Relative to 18B1” value was found to be 1.08.

B5: 18B1 LC S56A (antibody, human IgG1, kappa, V domains shown)
VH: B1 VH
VL: B1 VL with A50D, S56A
With B5, the “0.2 nM NGS” value in the assay with hIL-7R (Example 11) [1] stood at 0.96. The “KD Relative to 18B1” value in the assay with hIL-7R (Example 11) [2] came out at 0.98.

B6: 18B1 LC P95A (antibody, human IgG1, kappa, V domains shown)
VH: B1 VH
VL: B1 VL with A50D, P95A
In the case of B6, in the assay with hIL-7R (Example 11) [3], the “0.2 nM NGS” value turned out to be 0.03. In addition, the “KD Relative to 18B1” value in the assay with hIL-7R (Example 11) [4] turned out to be 0.08.

B7: 18B1 LC Q90A (antibody, human IgG1, kappa, V domains shown)
VH: B1 VH
VL: B1 VL with A50D, Q90A
Take B7: the “0.2 nM NGS” value with hIL-7R (Example 11) [3] is 1.63. For the same molecule, the “KD Relative to 18B1” value in the assay with hIL-7R (Example 11) [4] was determined as 1.46.

B8: 18B1 LC S26A (antibody, human IgG1, kappa, V domains shown)
VH: B1 VH
VL: B1 VL with S26A, A50D
For B8, the “0.2 nM NGS” value in the assay with hIL-7R (Example 11) [3] was determined as 1.32. Further, in the assay with hIL-7R (Example 11) [4], the “KD Relative to 18B1” value is 1.28.

B9: 18B1 LC S52A (antibody, human IgG1, kappa, V domains shown)
VH: B1 VH
VL: B1 VL with A50D, S52A
As for B9, in the assay with hIL-7R (Example 11) [1], the “0.2 nM NGS” value came to 1.09. The “KD Relative to 18B1” value with hIL-7R (Example 11) [2] came to 0.93.

B10: 18B1 LC I29A (antibody, human IgG1, kappa, V domains shown)
VH: B1 VH
VL: B1 VL with I29A, A50D
In the case of B10, the “0.2 nM NGS” value with hIL-7R (Example 11) [3] stood at 1.44. Besides, the “KD Relative to 18B1” value with hIL-7R (Example 11) [4] amounted to 1.46.

B11: 18B1 LC S31A (antibody, human IgG1, kappa, V domains shown)
VH: B1 VH
VL: B1 VL with S31A, A50D
As to B11, in the assay with hIL-7R (Example 11) [3], the “0.2 nM NGS” value was determined as 0.6. For the same molecule, the “KD Relative to 18B1” value with hIL-7R (Example 11) [4] was found to be 0.74.

B12: 18B1 LC L54A (antibody, human IgG1, kappa, V domains shown)
VH: B1 VH
VL: B1 VL with A50D, L54A
Take B12: the “0.2 nM NGS” value with hIL-7R (Example 11) [1] is 0.99. For the same molecule, the “KD Relative to 18B1” value with hIL-7R (Example 11) [2] was 0.93.

B13: 18B1 LC E55A (antibody, human IgG1, kappa, V domains shown)
VH: B1 VH
VL: B1 VL with A50D, E55A
Take B13: in the assay with hIL-7R (Example 11) [1], the “0.2 nM NGS” value is 0.23. For the same molecule, in the assay with hIL-7R (Example 11) [2], the “KD Relative to 18B1” value was found to be 0.57.

B14: 18B1 LC G28A (antibody, human IgG1, kappa, V domains shown)
VH: B1 VH
VL: B1 VL with G28A, A50D
Regarding B14, in the assay with hIL-7R (Example 11) [3], the “0.2 nM NGS” value was 1.05. In the assay with hIL-7R (Example 11) [4], the “KD Relative to 18B1” value was found to be 0.85.

B15: 18B1 LC T97A (antibody, V domains shown)
VH: B1 VH
VL: B1 VL with A50D, T99A
notes: copies: 2 + 2
Consider B15, for which, in the assay with hIL-7R (Example 11) [3], the “0.2 nM NGS” value turned out to be 0.92. Moreover, the “KD Relative to 18B1” value with hIL-7R (Example 11) [4] came out at 1.16.

B16: 18B1 LC S93A (antibody, human IgG1, kappa, V domains shown)
VH: B1 VH
VL: B1 VL with A50D, S93A
On to B16, for which, in the assay with hIL-7R (Example 11) [3], the “0.2 nM NGS” value was found to be 1.84. In addition, in the assay with hIL-7R (Example 11) [4], the “KD Relative to 18B1” value is 1.86.

B17: 18B1 LC N92A (antibody, human IgG1, kappa, V domains shown)
VH: B1 VH
VL: B1 VL with A50D, N92A
Turning to B17, the “0.2 nM NGS” value with hIL-7R (Example 11) [3] was 0.34. Moreover, the “KD Relative to 18B1” value in the assay with hIL-7R (Example 11) [4] turned out to be 0.63.

B18: 18B1 LC R24A (antibody, human IgG1, kappa, V domains shown)
VH: B1 VH
VL: B1 VL with R24A, A50D
Regarding B18, in the assay with hIL-7R (Example 11) [3], the “0.2 nM NGS” value came to 0.91. In addition, the “KD Relative to 18B1” value with hIL-7R (Example 11) [5] and in the assay with hIL-7R (Example 11) [4] was 1.15 throughout.

B19: 18B1 LC Q27A (antibody, human IgG1, kappa, V domains shown)
VH: B1 VH
VL: B1 VL with Q27A, A50D
Regarding B19, the “0.2 nM NGS” value with hIL-7R (Example 11) [3] was 1.27. Moreover, the “KD Relative to 18B1” value in the assay with hIL-7R (Example 11) [4] came out at 1.06.

B20: 18B1 LC F91A (antibody, human IgG1, kappa, V domains shown)
VH: B1 VH
VL: B1 VL with A50D, F91A
For the molecule B20, the “0.2 nM NGS” value with hIL-7R (Example 11) [3] was determined as 0.05. For the same molecule, the “KD Relative to 18B1” value with hIL-7R (Example 11) [4] worked out at 0.19.

The values are drawn from patent US20220017627A1 (Bristol-Myers Squibb, published 2022).
